The target in the assay is IL-9R/h16445 cytoplasmic-domain receptor chimera (human). Kind of assay: cell-based or functional assay.
Sequence of IL-9R/h16445 cytoplasmic-domain receptor chimera (human) (Q9HBE5 254-538, change not shown): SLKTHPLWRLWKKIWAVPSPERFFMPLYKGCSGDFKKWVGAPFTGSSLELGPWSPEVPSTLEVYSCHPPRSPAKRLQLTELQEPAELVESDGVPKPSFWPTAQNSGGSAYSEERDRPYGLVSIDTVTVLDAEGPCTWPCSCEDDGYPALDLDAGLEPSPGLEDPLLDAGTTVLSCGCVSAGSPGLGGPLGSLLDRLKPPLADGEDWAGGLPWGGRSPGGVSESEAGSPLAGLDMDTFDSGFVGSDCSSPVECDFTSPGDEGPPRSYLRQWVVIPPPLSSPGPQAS

With IL-9 (ligand), the CAT expression (HRRE-CAT reporter, HepG2 cells) is above 30 fold.

These data come from patent US20020090680A1.
